Patent publication US7267822
Where no end group is shown, it is not given here.

Target: recombinant hsc70 (Stressgen, Victoria, Canada)
Assay: competition ELISA on coated hsc70 against biotinylated-2702.75-84 (3 uM)

IC50: 7 µM
Binder: RENLRIALRY-NH2 (also: acetate salt) [peptide 2702.75-84]
